Tested on: Bacillus subtilis
Assay: cleaved RNA product abundance (RNA/gDNA barcode ratio) relative to median wild-type variant (ratio to wild type); higher = more accumulation of the downstream cleavage product
Settings: cleavage site: cggR-gapA (positions -7 to +36 mutated)
In short: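 Truncated aprE or tetM reporter mRNAs with barcoded RNase Y cleavage-site windows, mutagenized from oligos at a 9% error rate, sat in the B. subtilis chromosome. Cells grew in LB at 37°C from OD600 0.0003 to 0.3. Gel-selected cleaved RNA was reverse transcribed and its barcodes sequenced with those from genomic DNA, collapsing by UMI. Cleaved product abundance equals the RNA:gDNA barcode ratio per construct over the median construct with the unmutated site.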

[1] = experiment (reporter, strain, medium): exp 4a: truncated aprE reporter, strain BJT201 with 2% xylose (RNase J1 expressed)
[2] = experiment (reporter, strain, medium): exp 2b: truncated aprE reporter, strain BJT200

| Sequence | cleaved RNA product abundance [1] | cleaved RNA product abundance [2] |
| --- | --- | --- |
| ACAGACGAAGGAGCCGCAAAGAAGTTATTAGGGGATGAATAATCCCTTAATATAAATATCTCTCACTTATTTAAA | 0.808 | – |
| ACAGACGAAGGAGCCGCAAAGAAGTTATTAGGGGATGAATAATCCTTCAATATAAATATCTCTCACTTATTTAAA | 0.636 | – |
| ACAGACGAAGGAGCCGCAAAGAAGTTATTAGGGGATGACTAATCCCTCAATATAAATATCTCTCACTTATTTAAA | 0.63 | – |
| ACAGACGAAGGAGCCGCAAAGAAGTTATTAGGGGATGGATAATCCCTCAATATAAATATCTCTCACTTATTTAAA | 0.709 | 0.481 |
| ACAGACGAAGGAGCCGCAAAGAAGTTATTAGGGGATTAATAATCCCTCAATATAAATATCTCTCACTTATTTAAA | 0.866 | – |
| ACAGACGAAGGAGCCGCAAAGAAGTTATTAGGGGTTGAATAATCCCTCAATATAAATATCTCTCACTTATTTAAA | 0.254 | – |
| ACAGACGAAGGAGCCGCAAAGAAGTTATTAGGGTATGAATAATCCCTCAATATAAATATCTCTCACTTATTTAAA | 0.361 | – |
| ACAGACGAAGGAGCCGCAAAGAAGTTATTAGGTGATGAATAATCCCTCAATATAAATATCTCTCACTTATTTAAA | 0.331 | – |
| ACAGACGAAGGAGCCGCAAAGAAGTTATTAGTGGATGAATAATCCCTCAATATAAATATCTCTCACTTATTTAAA | 0.385 | 0.295 |
| ACAGACGAAGGAGCCGCAAAGAAGTTATTATAGGATGAATAATCCCTCAATATAAATATCTCTCACTTATTTAAA | 0.203 | 0.149 |
| ACAGACGAAGGAGCCGCAAAGAAGTTATTATCGGATGAATAATCCCTCAATATAAATATCTCTCACTTATTTAAA | 0.178 | – |
| ACAGACGAAGGAGCCGCAAAGAAGTTATTATGAGATGAATAATCCCTCAATATAAATATCTCTCACTTATTTAAA | 0.147 | 0.0958 |
| ACAGACGAAGGAGCCGCAAAGAAGTTATTATGGAATGAATAATCCCTCAATATAAATATCTCTCACTTATTTAAA | 0.105 | – |
| ACAGACGAAGGAGCCGCAAAGAAGTTATTATGGCATGAATAATCCCTCAATATAAATATCTCTCACTTATTTAAA | 0.184 | 0.0973 |
| ACAGACGAAGGAGCCGCAAAGAAGTTATTATGGGAAGAATAATCCCTCAATATAAATATCTCTCACTTATTTAAA | 0.246 | 0.159 |
| ACAGACGAAGGAGCCGCAAAGAAGTTATTATGGGACGAATAATCCCTCAATATAAATATCTCTCACTTATTTAAA | 0.174 | – |
| ACAGACGAAGGAGCCGCAAAGAAGTTATTATGGGATAAATAATCCCTCAATATAAATATCTCTCACTTATTTAAA | 0.362 | 0.31 |
| ACAGACGAAGGAGCCGCAAAGAAGTTATTATGGGATCAATAATCCCTCAATATAAATATCTCTCACTTATTTAAA | – | 0.23 |
| ACAGACGAAGGAGCCGCAAAGAAGTTATTATGGGATGAAAAATCCCTCAATATAAATATCTCTCACTTATTTAAA | 0.334 | – |
| ACAGACGAAGGAGCCGCAAAGAAGTTATTATGGGATGAATAAACCCTCAATATAAATATCTCTCACTTATTTAAA | 0.21 | – |
| ACAGACGAAGGAGCCGCAAAGAAGTTATTATGGGATGAATAACCCCTCAATATAAATATCTCTCACTTATTTAAA | 0.194 | – |
| ACAGACGAAGGAGCCGCAAAGAAGTTATTATGGGATGAATAATCCATCAATATAAATATCTCTCACTTATTTAAA | 0.236 | – |
| ACAGACGAAGGAGCCGCAAAGAAGTTATTATGGGATGAATAATCCCTAAATATAAATATCTCTCACTTATTTAAA | 0.514 | – |
| ACAGACGAAGGAGCCGCAAAGAAGTTATTATGGGATGAATAATCCCTCAAAATAAATATCTCTCACTTATTTAAA | 0.277 | – |
| ACAGACGAAGGAGCCGCAAAGAAGTTATTATGGGATGAATAATCCCTCAACATAAATATCTCTCACTTATTTAAA | 0.361 | – |
| ACAGACGAAGGAGCCGCAAAGAAGTTATTATGGGATGAATAATCCCTCAATATAAAAATCTCTCACTTATTTAAA | 0.391 | 0.279 |
| ACAGACGAAGGAGCCGCAAAGAAGTTATTATGGGATGAATAATCCCTCAATATAAATACCTCTCACTTATTTAAA | 0.44 | 0.348 |
| ACAGACGAAGGAGCCGCAAAGAAGTTATTATGGGATGAATAATCCCTCAATATAAATATCTCTCACTTATTTAAA | 0.407 | 0.302 |

| Sequence | cleaved RNA product abundance [1] | cleaved RNA product abundance [2] |
| --- | --- | --- |
| ACAGACGAAGGAGCCGCAAAGAAGTTATTATGGGATGAATAATCCCTCAATATAATTATCTCTCACTTATTTAAA | 0.294 | – |
| ACAGACGAAGGAGCCGCAAAGAAGTTATTATGGGATGAATAATCCCTCAATATACATATCTCTCACTTATTTAAA | 0.538 | – |
| ACAGACGAAGGAGCCGCAAAGAAGTTATTATGGGATGAATAATCCCTCAATATAGATATCTCTCACTTATTTAAA | 0.323 | – |
| ACAGACGAAGGAGCCGCAAAGAAGTTATTATGGGATGAATAATCCCTCAATATATATATCTCTCACTTATTTAAA | 0.503 | – |
| ACAGACGAAGGAGCCGCAAAGAAGTTATTATGGGATGAATAATCCCTCAATATCAATATCTCTCACTTATTTAAA | 0.0948 | – |
| ACAGACGAAGGAGCCGCAAAGAAGTTATTATGGGATGAATAATCCCTCAATTTAAATATCTCTCACTTATTTAAA | 0.169 | – |
| ACAGACGAAGGAGCCGCAAAGAAGTTATTATGGGATGAATAATCCCTCATTATAAATATCTCTCACTTATTTAAA | 0.528 | – |
| ACAGACGAAGGAGCCGCAAAGAAGTTATTATGGGATGAATAATCCCTCCATATAAATATCTCTCACTTATTTAAA | – | 0.361 |
| ACAGACGAAGGAGCCGCAAAGAAGTTATTATGGGATGAATAATCCCTCTATATAAATATCTCTCACTTATTTAAA | 0.223 | – |
| ACAGACGAAGGAGCCGCAAAGAAGTTATTATGGGATGAATAATCCCTGAATATAAATATCTCTCACTTATTTAAA | 0.663 | – |
| ACAGACGAAGGAGCCGCAAAGAAGTTATTATGGGATGAATAATCCGTCAATATAAATATCTCTCACTTATTTAAA | 0.279 | – |
| ACAGACGAAGGAGCCGCAAAGAAGTTATTATGGGATGAATAATCCTTCAATATAAATATCTCTCACTTATTTAAA | 0.382 | 0.315 |
| ACAGACGAAGGAGCCGCAAAGAAGTTATTATGGGATGAATAATCTCTCAATATAAATATCTCTCACTTATTTAAA | 0.285 | 0.224 |
| ACAGACGAAGGAGCCGCAAAGAAGTTATTATGGGATGAATAATTCCTCAATATAAATATCTCTCACTTATTTAAA | 0.246 | 0.149 |
| ACAGACGAAGGAGCCGCAAAGAAGTTATTATGGGATGAATACTCCCTCAATATAAATATCTCTCACTTATTTAAA | 0.212 | – |
| ACAGACGAAGGAGCCGCAAAGAAGTTATTATGGGATGATTAATCCCTCAATATAAATATCTCTCACTTATTTAAA | 0.414 | – |
| ACAGACGAAGGAGCCGCAAAGAAGTTATTATGGGATGTATAATCCCTCAATATAAATATCTCTCACTTATTTAAA | – | 0.31 |
| ACAGACGAAGGAGCCGCAAAGAAGTTATTATGGGATTAATAATCCCTCAATATAAATATCTCTCACTTATTTAAA | 0.307 | 0.352 |
| ACAGACGAAGGAGCCGCAAAGAAGTTATTATGGGGTGAATAATCCCTCAATATAAATATCTCTCACTTATTTAAA | 0.285 | – |
| ACAGACGAAGGAGCCGCAAAGAAGTTATTATGGTATGAATAATCCCTCAATATAAATATCTCTCACTTATTTAAA | 0.14 | 0.0925 |
| ACAGACGAAGGAGCCGCAAAGAAGTTATTATGTGATGAATAATCCCTCAATATAAATATCTCTCACTTATTTAAA | 0.131 | – |
| ACAGACGAAGGAGCCGCAAAGAAGTTATTATTGGATGAATAATCCCTCAATATAAATATCTCTCACTTATTTAAA | 0.149 | – |
| ACAGACGAAGGAGCCGCAAAGAAGTTATTCAAGGATGAATAATCCCTCAATATAAATATCTCTCACTTATTTAAA | 0.242 | 0.134 |
| ACAGACGAAGGAGCCGCAAAGAAGTTATTCAGAGATGAATAATCCCTCAATATAAATATCTCTCACTTATTTAAA | 0.159 | 0.167 |
| ACAGACGAAGGAGCCGCAAAGAAGTTATTCAGCGATGAATAATCCCTCAATATAAATATCTCTCACTTATTTAAA | 0.0886 | – |
| ACAGACGAAGGAGCCGCAAAGAAGTTATTCAGGAATGAATAATCCCTCAATATAAATATCTCTCACTTATTTAAA | 0.129 | 0.132 |
| ACAGACGAAGGAGCCGCAAAGAAGTTATTCAGGCATGAATAATCCCTCAATATAAATATCTCTCACTTATTTAAA | – | 0.0983 |

Source: the supplement of paper PMC11780869
